Measurements reported in patent US5607849.
Read-outs that look alike come from different tables or passages of the source. Each block holds one substance with its values, some of them ahead of it.

Experiments:
[1] = molecular target: dimethylated casein
[2] = molecular target: dimethylated casein; remark: listed apart in the source
[3] = molecular target: dimethylated casein; remark: listed apart in the source

- relative activity (fluorescence intensity due to bonding of monodansylcadaverine with dimethylated casein) (units/mg protein) [1]: 591
Substance: Alaska pollack (Theragra chalcogramma) liver-derived transglutaminase, natural enzyme purified from liver (S-Sepharose fraction)

- relative activity (fluorescence intensity due to bonding of monodansylcadaverine with dimethylated casein) (units/mg protein) [2]: 807
Substance: Pagrus major liver-derived transglutaminase, natural enzyme purified from liver (heparin fraction)

- Relative fluorescence intensity (bonding of monodansyl cadaverine with dimethylated casein) (relative fluorescence intensity) [3]: 910
Substance: Pagrus major transglutaminase, recombinant (expressed from the cDNA of pSLTG5 by plasmids pIL6TG1 and pTTG2-22 in E. coli HB101 and pYSTG1 in Saccharomyces cerevisiae INVSC2) (enzyme)
